The values below come from patent US20260167959A1, “APTAZYME-BASED REGULATABLE GENE EXPRESSION SYSTEMS” (REJUVENATE BIO INC, priority 2022, published 2026).

Sequences and labels used below:
B1: RA468 (nucleic acid)
DNA: GCGCGTCCTGGATTCGCGGAAACGCGTACATCCAGCCGAGAATACCAGCATCGTCTTGATGCCCTTGGAAGTCTCGTGACGAGTCCCAAATAGGACGAAACGCGC
modifications: expressed or natural sequence; listed as DNA, chemistry not fully specified
B2: RA462 (nucleic acid)
DNA: GCGCGTCCTGGATTCGCGCCGGAATACCAGCATCGTCTTGATGCCCTTGGAAGTCCGGGAAACGCGTACATCCAGCTGACGAGTCCCAAATAGGACGAAACGCGC
modifications: expressed or natural sequence
B3: RA463 (nucleic acid)
DNA: GCGCGTCCTGGATTCGCGGAAACGCGTACATCCAGCTGACGAGTCGAGAATACCAGCATCGTCTTGATGCCCTTGGAAGTCTCGCCCAAATAGGACGAAACGCGC
modifications: expressed or natural sequence
B4: RA466 (nucleic acid)
DNA: GCGCGTCCTGGATTCGCGGAACGGAATACCAGCATCGTCTTGATGCCCTTGGAAGTCCGACGCGTACATCCAGCTGACGAGTCCCAAATAGGACGAAACGCGC
modifications: expressed or natural sequence
B5: RA461 (nucleic acid)
DNA: GCGCGTCCTGGATTCGCGGAAACGCGTACATCCAGGAGAATACCAGCATCGTCTTGATGCCCTTGGAAGTCTCCTGACGAGTCCCAAATAGGACGAAACGCGC
modifications: expressed or natural sequence
B6: RA470 (nucleic acid)
DNA: GCGCGTCCTGGATTCGCGGAAACCGAGAATACCAGCATCGTCTTGATGCCCTTGGAAGTCTCGGCGTACATCCAGCTGACGAGTCCCAAATAGGACGAAACGCGC
modifications: expressed or natural sequence
B7: RA471 (nucleic acid)
DNA: GCGCGTCCTGGATTCGCGGAAACGCGTACATCCAGCTGACGAGTCCCAAATAGGACCGAGAATACCAGCATCGTCTTGATGCCCTTGGAAGTCTCGGAAACGCGC
modifications: expressed or natural sequence
B8: RA473 (nucleic acid)
DNA: GCGCGTCCTGGATTCGCGGAAACGCGTACATCCAGCTGACGAGTCCCAAATAGTGATACCAGCATCGTCTTGATGCCCTTGGCAGCACTAGGACGAAACGCGC
modifications: expressed or natural sequence
B9: RA467 (nucleic acid)
DNA: GCGCGTCCTGGATTCGCGGAAACGAGAATACCAGCATCGTCTTGATGCCCTTGGAAGTCTCGTACATCCAGCTGACGAGTCCCAAATAGGACGAAACGCGC
modifications: expressed or natural sequence
B10: RA476 (nucleic acid)
DNA: GCGCGTCCTGGATTCGCGGAAACGCGTACATCCAGCTGACGAGTCCCAAATAGGACGAAAAGAATACCAGCATCGTCTTGATGCCCTTGGAAGTCTCGCGC
modifications: expressed or natural sequence
B11: RA469 (nucleic acid)
DNA: GCGAGAATACCAGCATCGTCTTGATGCCCTTGGAAGTCTCGCGCGTCCTGGATTCGCGGAAACGCGTACATCCAGCTGACGAGTCCCAAATAGGACGAAACGCGC
modifications: expressed or natural sequence
B12: RA464 (nucleic acid)
DNA: GCGCGTCCTGGAGTGATACCAGCATCGTCTTGATGCCCTTGGCAGCACTATTCGCGGAAACGCGTACATCCAGCTGACGAGTCCCAAATAGGACGAAACGCGC
modifications: expressed or natural sequence
B13: RA465 (nucleic acid)
DNA: GCGCGTCCTGGATTCGCGGAAACGCGTACATCCAGCTGACCGAGAATACCAGCATCGTCTTGATGCCCTTGGAAGTCTCGGAGTCCCAAATAGGACGAAACGCGC
modifications: expressed or natural sequence
B14: RA472 (nucleic acid)
DNA: GCGCGTCCTGGATTCGCGGAAACGCGTACATCCAGCTGACGAGTCCCAAATAGAGAATACCAGCATCGTCTTGATGCCCTTGGAAGTCTCGGACGAAACGCGC
modifications: expressed or natural sequence
B15: RA475 (nucleic acid)
DNA: GCGCGTCCTGGATTCGCGGAAACGCGTACATCCAGCTGACGAGTCCCAAATAGGACGAAACGCGAGAATACCAGCATCGTCTTGATGCCCTTGGAAGTCTCGC
modifications: chemistry not given here
B16: RA474 (nucleic acid)
DNA: GCGCGTCCTGGATTCGCGGAAACGCGTACATCCAGCTGACGAGTCCCAAATAGGACGAAACGCGCGGAATACCAGCATCGTCTTGATGCCCTTGGAAGTCCGC
modifications: expressed or natural sequence
B17: RA055 (nucleic acid)
DNA: GCGCGTCCTGGATTCGCGGCGAGAATACCAGCATCGTCTTGATGCCCTTGGAAGTCTCGAAACGCGTACATCCAGCTGACGAGTCCCAAATAGGACGAAACGCGC
modifications: expressed or natural sequence
B18: RA053 (nucleic acid)
DNA: B5 DNA with G36A, A37G, G38T, A39G, A67C, T70C, C71A, T72C, C73T
modifications: expressed or natural sequence
B19: RA046 (nucleic acid)
DNA: GCGCGTCCTGGATTCGCGGAAACGCGTACATCCAGCTGACGAGTCCGGAATACCAGCATCGTCTTGATGCCCTTGGAAGTCCGCCAAATAGGACGAAACGCGC
modifications: expressed or natural sequence
B20: RA047 (nucleic acid)
DNA: GCGCGTCCTGGATTCGCGGAAACGCGTACATCCAGCTGACGAGTCCCAGGAATACCAGCATCGTCTTGATGCCCTTGGAAGTCCAATAGGACGAAACGCGC
modifications: expressed or natural sequence
B21: RA051 (nucleic acid)
DNA: GCGCGTCCTGGATTCGCGGAAACGCGTACATCCAGCTGACGAGTCCCAAATAGGACGAAACCGAGAATACCAGCATCGTCTTGATGCCCTTGGAAGTCTCGGCGC
modifications: expressed or natural sequence
B22: RA050 (nucleic acid)
DNA: GCGCGTCCTGGATTCGCGGAAACGCGTACATCCAGCTGACGAGAATACCAGCATCGTCTTGATGCCCTTGGAAGTCTCGCGAGTCCCAAATAGGACGAAACGCGC
modifications: expressed or natural sequence
B23: RA004: exemplary aptazyme of the T3H48 aptazyme variant library (nucleic acid)
DNA: GCGCGTCCTGGATTCGCGGAAACGCGTACATCCAGCTGACGAGTCCCAAATAGGCCGGAATACCAGCATCGTCTTGATGCCCTTGGAAGTCCGGACGAAACGCGC
modifications: expressed or natural sequence
notes: exemplary aptazyme of the T3H48 aptazyme variant library
B24: RA049 (nucleic acid)
DNA: GCGCGTCCTGGATTCGCGGAAACGCGTACATAGAATACCAGCATCGTCTTGATGCCCTTGGAAGTCTCCAGCTGACGAGTCCCAAATAGGACGAAACGCGC
modifications: expressed or natural sequence
B25: RA048 (nucleic acid)
DNA: GCGCGTCCTGGATTCGCGGAAACGCGTACATCCAGCTGACGCGAGAATACCAGCATCGTCTTGATGCCCTTGGAAGTCTCGAGTCCCAAATAGGACGAAACGCGC
modifications: expressed or natural sequence
B26: RA052 (nucleic acid)
DNA: GCGCGTCCTGGATTCGCGGAAACGCGTACATCCAGCTGACGAGAGTGATACCAGCATCGTCTTGATGCCCTTGGCAGCACTTCCCAAATAGGACGAAACGCGC
modifications: expressed or natural sequence
B27: RA054 (nucleic acid)
DNA: GAGTGATACCAGCATCGTCTTGATGCCCTTGGCAGCACTCGCGTCCTGGATTCGCGGAAACGCGTACATCCAGCTGACGAGTCCCAAATAGGACGAAACGCGC
modifications: expressed or natural sequence

Positions count from the first letter of the chain named.

One series has as its system Renilla luciferase RNA. The series can be described thus: Barcoded aptazyme variant library screen: un-cleaved Renilla luciferase RNA by barcode read counts, HEK293-T cells. The format is cell-based. Particulars: un-cleaved Renilla luciferase RNA by barcode read counts; with 1 mM theophylline (ON) over without theophylline (OFF); HEK293-T cells; triplicate. In a few lines:
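Aptazyme variants (seven theophylline aptamers inserted after each T3H48 ribozyme nucleotide, 9-nt barcoded) cloned into the 3′ UTR of Renilla luciferase in psiCHECK-2; cells cultured ± theophylline, in triplicate. RNA and DNA barcodes amplified and sequenced; normalized read counts gave un-cleaved RNA fraction and ON/OFF fold-change.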
Regarding B1, the “Fold change in RNA expression between the ON state and the OFF state” value (shortened to “Fold change”) is given as 0.4. On to B2, for which the “Fold change” value worked out at 0.4. Regarding B3, the “Fold change” value is 0.4. In the case of B4, the “Fold change” value came out at 0.4. On the same count and under the same terms, the figure for B5 is 0.5; for B6 it is 0.4. On the same count and under the same terms, the figure for B7 is 0.4; for B8 it is 0.3; for B9 it is 0.4. Consider B10, for which the “Fold change” value is 0.2. For the molecule B11, the “Fold change” value is 0.4.

For the molecule B12, the “Fold change” value came out at 0.4. On to B13, for which the “Fold change” value is 0.4.

For the molecule B14, the “Fold change” value was found to be 0.3.

With B15, the “Fold change” value came out at 0.3. Consider B16, for which the “Fold change” value is 0.3.

The series is the same for the next values; noted with them: un-cleaved Renilla luciferase RNA, HEK293-T cells cultured with 1 mM theophylline (ON) over without theophylline (OFF); barcode read counts, triplicate.
With B17, the “Fold change” value stood at 2.0 fold. On to B18, for which the “Fold change” value is 2.0 fold. Turning to B19, the “Fold change” value was found to be 2.0 fold. The same measure, in the same setting: the result for B20 reads 2.0 fold. Turning to B21, the “Fold change” value is listed as 2.0 fold.

Take B22: the “Fold change” value is 2.0 fold. As for B23, the “Fold change” value was found to be 5.3 fold.

Take B24: the “Fold change” value is listed as 2.0 fold. Turning to B25, the “Fold change” value is recorded as 2.0 fold. As for B26, the “Fold change” value turned out to be 2.0 fold. For B27, the “Fold change” value is recorded as 2.0 fold.
